The values that follow are results of earlier work, collected in PMC4364296.

Several values for one entry are separate records, joined by “and”; a condition that tells them apart may be missing. Equal entries are not always repeated. Where two headings read alike, the source gives them in different places.

As usually defined, the Kd is the free concentration of one partner at which half of the binding sites on the other are occupied at equilibrium, for simple one-to-one binding.

Series [1] has as its target ZipA (Escherichia coli) (UniProt P77173).
The target is the same in series [2]. This is another data set of the same source.

Chain of FtsZ (P0A9A6 whole entry): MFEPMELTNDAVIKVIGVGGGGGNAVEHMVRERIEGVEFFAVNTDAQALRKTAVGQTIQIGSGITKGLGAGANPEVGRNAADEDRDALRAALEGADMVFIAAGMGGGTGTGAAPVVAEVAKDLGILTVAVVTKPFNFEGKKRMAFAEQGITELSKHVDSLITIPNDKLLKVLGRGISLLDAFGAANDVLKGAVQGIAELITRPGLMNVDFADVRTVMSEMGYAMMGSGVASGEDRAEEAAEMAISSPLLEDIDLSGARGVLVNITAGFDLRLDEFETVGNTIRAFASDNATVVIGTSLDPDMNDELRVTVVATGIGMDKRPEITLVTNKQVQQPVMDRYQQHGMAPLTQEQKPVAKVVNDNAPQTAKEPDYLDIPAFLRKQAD

Take FtsZ (from UniProt P0A9A6): the Kd with ZipA (Escherichia coli) [1] is 40 µM. Consider “FtsZ CCTP peptide CCTP (from UniProt P0A9A6)”, for which the dissociation constant Kd with ZipA (Escherichia coli) [2] is 35 µM and 21.6 µM.
